# From patent publication US20230322924A1 (Janssen / Centocor, published 2023)
# B1: C33B124 (antibody, IgG1, V domains shown)
# VH: EVQLLESGGGLVQPGGSLRLSCAASRFTFSSYAMTWVRQAPGKGLEWVSTINISGGSTYYADSVKGRFTISRDNSKNTLYLQMNSLRAEDTAVYYCTKGGYSSGPFDYWGQGTLVSVSS
# VL: SYELTQPPSVSVSPGQTASITCSGDKLGDKYVRWYQQKTGQSPVLVMYQDSKRPSGIRERFYGSNSGNTATPTISGTQAVDEAEYYCQAWDSSTGVVFGGGTKLTVL
# notes: huIgG1 F405L; also called C33F129; C33H73/C33L32
# B2: C33B911 (antibody, V domains shown)
# VH: EVQLVESGGGLVQPGRSLRLSCAASGFTFDDYAMHWVRQAPGKGLEWVSGIGWSGGSIVYADSVKGRFKISRDNAKNSLYLQMNSLRAEDTALYYCAKDSPYGDFFDYWGQGTLVTVSS
# VL: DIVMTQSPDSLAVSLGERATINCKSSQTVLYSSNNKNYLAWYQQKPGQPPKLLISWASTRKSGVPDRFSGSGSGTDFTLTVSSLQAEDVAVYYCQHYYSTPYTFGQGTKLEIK
# notes: OMNIMouse-derived anti-CD33 mAb; same V regions as C33B903; also called C33H251/C33L117; C33F549
# B3: C33B914 (antibody, V domains shown)
# VH: QVQLVESGGGVVQPGRSLRLSCAASGFTFSYYGMHWVRQAPDKGLEWVAVIWFDGNNKYYADSVKGRFTISRDNSKNTLYLQMNSLRAEDTAVYYCARDRELLFDYWGQGTLVTVSS
# VL: SYELTQPPSVSVSPGQTASITCSGDELGDMYACWYQQKPGQSPLVVIYQDSKRPSGIPERFSGSNSGNTATLTISGTQAMDEAAYYCQTWDTRIAVFGGGTNLTVL
# notes: OMNIMouse-derived anti-CD33 mAb; same V regions as C33B906; also called C33H254/C33L120; C33F552
# B4: C33B913 (antibody, V domains shown)
# VH: EVQLLESGGGLVQPGGSLKLSCTASGFTFRSYAMSWVRQAPGKGLEWVSAINGYGDGRYYADSVKGRFTISRDNSKNTLYLQMNSLRAEDTAVYSCAKDQGFGELFFDYWGQGTLVTVSS
# VL: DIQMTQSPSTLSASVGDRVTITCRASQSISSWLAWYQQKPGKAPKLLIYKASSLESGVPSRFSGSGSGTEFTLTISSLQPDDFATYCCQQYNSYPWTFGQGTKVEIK
# notes: OMNIMouse-derived anti-CD33 mAb; same V regions as C33B905; also called C33H253/C33L119; C33F551
# B5: C33B80 (antibody, IgG1, V domains shown)
# VH: EVQLLESGGGLVQPGGSLRLSCAASGFTFNYAMSWVRQAPGKGLEWVSAISGSGGSTYYADSVKGRFTISRDISKNTLYLQMNSLRAEDTAVYYCARTYNSGYYDGDFDYWGQGTLVTVSS
# VL: QSALTQPASVSGSPGQSIPISSTGTSSDDGKNNIVSWYQQHPGKAPKLMIYKDSKRPSGVSNRFSGSKSGNTASLTISGLQADDEADYHCCSYAGASNHVVFGGGTKLTVL
# notes: huIgG1 F405L; also called C33F85; C33H76/C33L39
# B6: C33B915 (antibody, V domains shown)
# VH: EVQLVESGGGLVQPGRSLRLSCAASGFTFDDYAMHWVRQVPGEGLEWVSGISWNGGDMVYADSVKGRFTISRDNAKNSLYLQMNSLRPEDTALYYCVKDMPYFDFLTGSDYYYYGMDVWGQGTTVTVSS
# VL: SYELTQPPSVSVSPGQTASITCSGDNLGNEHVCWYHQKPGQSPVLVIYQNNKRPSGIPERFSGSNSGNTATLSISGTQATDEADYYCQAWDSTTAVFGGGTKLTVL
# notes: OMNIMouse-derived anti-CD33 mAb; same V regions as C33B907; also called C33H255/C33L121; C33F553
# Columns and labels:
# [1] = target: Human CD33 ECD-HSA (human); experiment: SPRi off-rate screen (IBIS MX96), mAb captured by anti-human Fc; column head prints KD
# [2] = target: T1, Human CD33 full length, expressed on HEK293F cells (human, UniProt P20138 18-364); experiment: flow cytometry, HEK293F cells expressing human CD33
# T1 construct: HEK293F cells transduced with lentivirus containing full length human CD33; also called huCD33
# [3] = target: T2, Cyno CD33 ECD-HSA (cynomolgus monkey); experiment: SPRi off-rate screen (IBIS MX96), mAb captured by anti-human Fc; column head prints Cyno CD33 binding KD
# T2 construct: Cyno CD33 extracellular domain fused to monomeric human serum albumin and a six-histidine tag; also called C33W1
# [4] = target: T3, Cyno CD33 full length, expressed on HEK293F cells (cynomolgus monkey); experiment: flow cytometry, HEK293F cells expressing cyno CD33
# T3 construct: HEK293F cells transduced with lentivirus containing full length cyno CD33 (Genbank XP_005590138.1); also called cyCD33
# [5] = target: Human CD33 ECD-HSA (human); experiment: ProteOn SPR, mAb captured by anti-human Fc, 1:1 Langmuir fit
# [6] = target: T2, Cyno CD33 ECD-HSA; experiment: as above
# [7] = target: T4, Cyno CD33 full length (cynomolgus monkey); experiment: flow cytometry on HEK293F cells expressing cyno CD33
# T4 construct: also called cyCD33
# Experimental: (§1) The purified antibodies were assessed for binding to stably transfected HEK293F cells expressing human CD33 or cyno CD33 (generation described above) along with the parental HEK293F as negative control. Cells were harvested from tissue culture flasks using non-enzymatic dissociation buffer (Thermo Scientific). The flasks were rinsed twice with PBS and dissociation buffer was added to the flask, and the flask was incubated for 10 minutes at 37° C. until the cells became non-adherent. The cells were centrifuged at 300 g for 5 minutes and resuspended at 1.0×10⁶ cells/ml in staining buffer (Becton Dickinson; Franklin Lakes, NJ). 50,000 cells/well of each cell type was plated in 50 μl of staining buffer in round bottom plates (Becton Dickinson). […] 100 μl staining buffer was added to all wells of each plate, the plates were spun at 300 g for 5 min, the buffer was removed, 200 μl staining buffer was added to all wells of each plate, the plates were spun at 300 g for 5 min, and the buffer was removed. 50 μl of 2 μg/ml of Goat-anti-human Fc AF647 secondary antibody (Jackson Immunoresearch; West Grove, PA) was added to all wells of the plates, and the plates were incubated for 30 min at 4° C. 100 μl staining buffer was added to all wells of the plates, the plates were spun at 300 g for 5 min, and the buffer was removed. 200 μl running buffer (running buffer is Staining buffer, 1 mM EDTA, 0.1% Pluronic Acid) was added to all wells of the plates, the plates were spun at 300 g for 5 min, and the buffer was removed. 30 μl running buffer containing Sytox Green live/dead dye (ThermoFisher) was added to all wells with cells and the plates were read on an iQue IntelliCyt flow cytometer. Cells were gated on forward vs. side scatter to eliminate debris, then on singlets and then on live cells which excluded the Sytox stain. Antibody binding was assessed by the mean fluorescence intensity in the AF647 channel.
# (§2) The OmniMouse panel (8 mAbs total) was generated separately and characterized further for binding to cells.
# [8] = target: T5, Human CD33 full length (human, UniProt P20138 18-364); experiment: flow cytometry on HEK293F cells expressing human CD33
# T5 construct: also called huCD33
# Experimental: as §1, §2
# [9] = target: T6, Human CD33 ECD-HSA (human); experiment: ProteOn SPR, mAb captured on anti-human Fc, antigen as analyte
# T6 construct: CD33 ECD fused at the C-terminus to monomeric HSA (C58S) and a six-histidine tag; also called C33W2; huCD33 ECD-HSA
# Experimental: (§3) The panel of mAbs was then further characterized for full affinity analysis as well as epitope binning. The binding of anti-CD33 mAbs to recombinant human CD33 ECD-HSA (C33W2) and cyno CD33 ECD-HSA (C33W1) was measured by ProteOn SPR (Bio-Rad). […] Different mAbs were captured on the anti-human Fc IgG surface at 0.25 or 0.5 μg/ml (160-300 RU) in vertical ligand orientation, with the 6th ligand channel as no ligand surface control. Human and cyno CD33-HSA proteins at 0.3 μM concentration in 3-fold dilution series of 5 concentrations flew in as analyte to bind to captured mAbs in the horizontal orientation. A buffer sample was also injected in the 6th channel to monitor the dissociation of captured mAb and baseline stability. […] The raw biding data were processed by double referencing after subtracting the response data from: 1) the inter-spot to correct for the non-specific interactions between the Ag and the empty chip surface; 2) the buffer channel to correct for baseline drifting due to the dissociation of captured mAb surface over time. The processed data at all antigen concentrations for each mAb were globally fit to a 1:1 simple Langmuir binding model to extract estimates of the kinetic (kₒₙ, koff) and affinity (Kd) constants.
# [10] = target: T7, Cyno CD33 ECD-HSA (cynomolgus monkey); experiment: as above
# T7 construct: Cyno CD33 ECD fused to HSA and a six-histidine tag; also called C33W1
# Experimental: as §3
# T1 sequence (P20138 18-364 limits assumed): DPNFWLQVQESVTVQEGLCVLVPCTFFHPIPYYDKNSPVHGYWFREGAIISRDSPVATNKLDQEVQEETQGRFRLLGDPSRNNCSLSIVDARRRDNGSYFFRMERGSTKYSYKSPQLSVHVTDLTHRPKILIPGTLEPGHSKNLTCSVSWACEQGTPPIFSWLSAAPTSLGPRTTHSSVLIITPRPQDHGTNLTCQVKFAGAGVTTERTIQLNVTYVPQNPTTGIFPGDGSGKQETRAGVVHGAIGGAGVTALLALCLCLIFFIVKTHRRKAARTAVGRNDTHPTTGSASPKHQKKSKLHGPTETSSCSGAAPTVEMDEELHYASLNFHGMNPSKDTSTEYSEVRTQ
# T5 sequence (P20138 18-364 limits assumed): as above
Binder,koff [1],MFI at 0 nM mAb (background) [2],MFI at 0.6 nM mAb [2],MFI at 6 nM mAb [2],MFI at 60 nM mAb [2],koff [3],MFI at 0 nM (background) [7],MFI at 0.6 nM [7],MFI at 6 nM [7],MFI at 60 nM [7],MFI at 0 nM (background) [8],MFI at 0.6 nM [8],MFI at 6 nM [8],MFI at 60 nM [8],Kd [9],koff [9],kon [9],Kd [10],koff [10],kon [10],other results
B1,0.000238 s⁻¹,172 MFI,90.3 MFI,126 MFI,798 MFI,0.000477 s⁻¹,,,,,,,,,,,,,,,MFI at 0 nM mAb (background) [4]: 98.4 MFI; MFI at 0.6 nM mAb [4]: 77.3 MFI; MFI at 6 nM mAb [4]: 132 MFI; MFI at 60 nM mAb [4]: 593 MFI; Kd [5]: 0.35 nM; koff [5]: 0.000124 s⁻¹; kon [5]: 357000 M⁻¹ s⁻¹; Kd [6]: 1.01 nM; koff [6]: 0.000472 s⁻¹; kon [6]: 467000 M⁻¹ s⁻¹
B2,,,,,,,97.9 MFI,1940 MFI,7730 MFI,17000 MFI,114 MFI,13500 MFI,100000 MFI,238000 MFI,0.0378 nM,4.14e-05 s⁻¹,1.1e+06 M⁻¹ s⁻¹,1 nM,0.00115 s⁻¹,1.15e+06 M⁻¹ s⁻¹,
B3,,,,,,,86.8 MFI,22100 MFI,33400 MFI,45000 MFI,185 MFI,153000 MFI,315000 MFI,304000 MFI,22.1 nM,0.0098 s⁻¹,444000 M⁻¹ s⁻¹,0.44 nM,0.000233 s⁻¹,529000 M⁻¹ s⁻¹,
B4,,,,,,,106 MFI,35200 MFI,36900 MFI,40700 MFI,128 MFI,205000 MFI,409000 MFI,519000 MFI,0.969 nM,0.00064 s⁻¹,660000 M⁻¹ s⁻¹,0.12 nM,0.000308 s⁻¹,2.56e+06 M⁻¹ s⁻¹,
B5,0.000384 s⁻¹,88.9 MFI,115 MFI,410 MFI,5800 MFI,0.000266 s⁻¹,,,,,,,,,,,,,,,MFI at 0 nM mAb (background) [4]: 82.4 MFI; MFI at 0.6 nM mAb [4]: 109 MFI; MFI at 6 nM mAb [4]: 249 MFI; MFI at 60 nM mAb [4]: 4610 MFI; Kd [5]: 1.32 nM; koff [5]: 0.000425 s⁻¹; kon [5]: 323000 M⁻¹ s⁻¹; Kd [6]: 0.527 nM; koff [6]: 0.000259 s⁻¹; kon [6]: 492000 M⁻¹ s⁻¹
B6,,,,,,,114 MFI,36200 MFI,35700 MFI,37500 MFI,112 MFI,138000 MFI,363000 MFI,390000 MFI,4.53 nM,0.000989 s⁻¹,218000 M⁻¹ s⁻¹,0.0234 nM,8.93e-05 s⁻¹,3.81e+06 M⁻¹ s⁻¹,
